Measurements: PMC10506094

Legend:
[1] = molecular target: Loa22 of L. borgpetersenii sv. Ballum str. M2, endogenous (Leptospira borgpetersenii sv. Ballum str. M2 (endogenous in cultivated cells)); experiment: SDS-PAGE and immunoblot of whole cell lysates; Leptospira cells in SDS-PAGE buffer (4% SDS, 2% β-ME), sonicated and heated (10 min, 99 °C); blot screened with anti-Loa22_(27-197) antiserum; oligomer read from the size of the bands
[2] = molecular target: Loa22 of L. interrogans sv. Canicola str. Kito, endogenous (Leptospira interrogans sv. Canicola str. Kito (endogenous in cultivated cells)); experiment: as above
[3] = molecular target: Loa22 of L. interrogans sv. Copenhageni str. Fiocruz L1-130, endogenous (Leptospira interrogans sv. Copenhageni str. Fiocruz L1-130 (endogenous in cultivated cells)); experiment: as above
[4] = molecular target: Loa22 of L. interrogans sv. Pomona str. LC82-25, endogenous (Leptospira interrogans sv. Pomona str. LC82-25 (endogenous in cultivated cells)); experiment: as above
[5] = molecular target: Loa22 of L. kirschneri sv. Grippotyphosa str. RM52, endogenous (Leptospira kirschneri sv. Grippotyphosa str. RM52 (endogenous in cultivated cells)); experiment: as above
[6] = molecular target: Loa22 of L. noguchii sv. Autumnalis str. Bonito, endogenous (Leptospira noguchii sv. Autumnalis str. Bonito (endogenous in cultivated cells)); experiment: as above
[7] = SEC; TSKgel G4000SWXL column, PBS as mobile phase, 1.0 mL/min; 50 µg recombinant protein injected (25 µL); MW from a standard curve of globular proteins; fractions checked by SDS-PAGE and immunoblot with anti-Loa22_(27-197) antiserum
[8] = molecular target: recombinant Loa22_(27-197) (Leptospira OmpA-like 22 kDa protein) of L. interrogans sv. Copenhageni str. Fiocruz L1-130 (Leptospira interrogans sv. Copenhageni str. Fiocruz L1-130); experiment: as above

Loa22 of L. borgpetersenii sv. Ballum str. M2, endogenous (natural protein)
stoichiometry N [1]: 3

Loa22 of L. interrogans sv. Canicola str. Kito, endogenous (natural protein)
stoichiometry N [2]: 3

Loa22 of L. interrogans sv. Copenhageni str. Fiocruz L1-130, endogenous (natural protein)
stoichiometry N [3]: 3

Loa22 of L. interrogans sv. Pomona str. LC82-25, endogenous (natural protein)
stoichiometry N [4]: 3

Loa22 of L. kirschneri sv. Grippotyphosa str. RM52, endogenous (natural protein)
stoichiometry N [5]: 3

Loa22 of L. noguchii sv. Autumnalis str. Bonito, endogenous (natural protein)
stoichiometry N [6]: 3

recombinant Loa22_(27-197) (Leptospira OmpA-like 22 kDa protein) of L. interrogans sv. Copenhageni str. Fiocruz L1-130
percent of the protein as monomer (area under the SEC peaks) [7]: a majority of the recombinant protein exists as a monomer (89% of the total)

recombinant Loa22_(27-197) (Leptospira OmpA-like 22 kDa protein) of L. interrogans sv. Copenhageni str. Fiocruz L1-130 (domain or fragment)
stoichiometry N [8]: 3
